This sample holds only a part of the variants without activity.
B1: TPR 5TU (parent)
chain: GGAUCUUCUCGAUCUAACAAAAAAGACAAAUCUGCCACAAAGCUUGAGAGCAUCUUCGGAUGCAGAGGCGGCAGCCUUCGGUGGCGCGAUAGCGCCAACGUUCUCAACUAUGACACGCAAAACGCGUGCUCCGUUGAAUGGAGUUUAUCAUG

Variants of: B1
Test: polymerase ribozyme fitness, log enrichment relative to wild type (log ratio); higher = more active; in vitro selection for triplet polymerase activity
Procedure, shortened: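 For each subunit of a heterodimeric triplet polymerase ribozyme, a mutant library was built by PCR and transcribed, then taken through a single in vitro selection round in triplicate. Selection involved annealing to a biotinylated primer, the partner subunit and triplets, incubation frozen at −7 °C, gel excision of extended constructs, capture on streptavidin beads and RT-PCR. Genotypes were retained after Illumina sequencing of inputs and outputs only with ≥10 input reads and ≥1 read in each output. Fitness is defined as the logarithm of a genotype's enrichment relative to wild-type enrichment, using inverse-variance-weighted averages across replicates, with the logarithm taken to base 2.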

| Variant | polymerase ribozyme fitness (log ratio) |
| --- | --- |
| A21U A91U | ≤ -4.2 |
| A21U C38G G84A G136C | -3.78 |
| A21C A91C U127C | ≤ -4.2 |
| A19U G68C C85U | ≤ -4.2 |
| A20G A24U C87U A107G | ≤ -4.2 |
| A20C C38G G70A C87U C108U | ≤ -4.2 |
| A20U U77G C96U C99U | ≤ -4.2 |
| A20U G94A G112A | -3.86 |
| A19U C79U G83A G88C | ≤ -4.2 |
| A21U A41C G65A C85A | ≤ -4.2 |
| A20U C54U C95U C96A | -2.31 |
| A20G A24G U53A A91G A97U U109C U130A G141A A142C | ≤ -4.2 |
| A21G A23G G58C G59A C85G C103A C108U | ≤ -4.2 |
| A21C C27G A64C C85A | ≤ -4.2 |
| A20G A23C U53A G92A C93A C95U G141A | ≤ -4.2 |
| A21C C27U C35U G68A C96A A147G | ≤ -4.2 |
| A21C C85U U102G C118U U144G U151A | ≤ -4.2 |
| A20G A26G G65A C69A C105A | ≤ -4.2 |
| A20U C93G A121U A142U | ≤ -4.2 |
| A21G C32U G84U A115U U144C | ≤ -4.2 |
| A20U A24U G83C C93G G143A | ≤ -4.2 |
| A20C A26G U56A C63U G67U G80A C85U G86C C103G | ≤ -4.2 |
| A20C U44C U55G C69A | ≤ -4.2 |
| A21G A40C | 0.803 |

| Variant | polymerase ribozyme fitness (log ratio) |
| --- | --- |
| A19U G34A C38U G59C C95A C116A | -4.19 |
| A21C G84U | -1.28 |
| A21C U53A C54G C76G C103G G133U | ≤ -4.2 |
| A20C G80A U82A C93U A98C | -2.56 |
| A21C U31A A49C U61A C93U G133C | ≤ -4.2 |
| A21C G136A | 0.615 |
| A21C C87A | -4.15 |
| A20C G81U G94U A120U U151C | -4.13 |
| A20C C36U G86A A89G C93A G94U G140A G143C | ≤ -4.2 |
| A21C C57A A91G C99U G140C | ≤ -4.2 |
| A20G U148C | -1.93 |
| A21C C57G C75A A98G A107U C123U A142U G143C | ≤ -4.2 |
| A20G C85A U104C C105G | ≤ -4.2 |
| A21G A49C C93G C96U | ≤ -4.2 |
| A20C G50U C95U A106U A137C | ≤ -4.2 |
| A21U C57A A107C U139C A147C | ≤ -4.2 |
| A20C G88A | -3.56 |
| A20U G25C G50C C118U | ≤ -4.2 |
| A20G U55A G59U C76U C96A | -1.18 |
| A21U A28C G34U A39G | ≤ -4.2 |
| A19U U56A G86A A107G | ≤ -4.2 |
| A20U A30C G70A | ≤ -4.2 |
| A19U U53A G81U C96A | -2.73 |
| A19U C93U A97U G141C | -2.49 |

| Variant | polymerase ribozyme fitness (log ratio) |
| --- | --- |
| A21G A52G C85U U104G | -0.132 |
| A21U C38U C63G G84U | -0.36 |
| A20C A29C G92U C149G | ≤ -4.2 |
| A19U C93U U148A | -3.95 |
| A21G A26U C87A C125G U135C U146C | ≤ -4.2 |
| A21G U56G G80U G88A C105G A120U C149U | ≤ -4.2 |
| A21C C27U G59C C69A | -3.75 |
| A21U C57A C93G A142C | -3.67 |
| A21C U53A C69U C125U | -3.94 |
| A21G G124C | -0.489 |
| A21C A52G C125A A142U | ≤ -4.2 |
| A19U G83C A89C A97G | -2.32 |
| A20C G50A C63A C85U G117U | -1.09 |
| A20C C27G C96G A115U | ≤ -4.2 |
| A19U U55C C57A A66C C85G U109G | ≤ -4.2 |
| A21G G94A A97G A137G | -2.22 |
| A20U A29G G42A C57A A91G G94C | ≤ -4.2 |
| A20G A26C A49C G68C C72G G81U C85A C93G G126C | ≤ -4.2 |
| A21C A40C U45A A73G G83U C96A | ≤ -4.2 |
| A21C A23G C51G U55A U101A | ≤ -4.2 |
| A21C C35A C87U | -3.56 |
| A20C U55A | -0.798 |
| A20G C63U C96A G143C | -3.2 |
| A20U C43A C69U A138G | ≤ -4.2 |

| Variant | polymerase ribozyme fitness (log ratio) |
| --- | --- |
| A21G U56A | -0.198 |
| A21G G50C A66C U82C G86C C114G A120C A150G | ≤ -4.2 |
| A20U A30U A39G C75A | ≤ -4.2 |
| A19U C57G A121G A150G | -1.93 |
| A20G A24G A39G A40C C76A G136U G141A | ≤ -4.2 |
| A21U C54A A142G | -2.81 |
| A20C C85G A113U | -3.57 |
| A21G G25C G34A G71U G100C A107U U109C A121U A150U | ≤ -4.2 |
| A20U G50U C76A G92C A110G C118G A137U | ≤ -4.2 |
| A21C A52C C57A G88A G92A A97U | ≤ -4.2 |
| A21G A22G A47C C51A G74C C75U U102G C132G G143C | ≤ -4.2 |
| A21G C27G A29C A73C G74U C75G C85U G88A | ≤ -4.2 |
| A20G C87U | -1.06 |
| A20U C85A G94C A121C | -0.745 |
| A21U A30U U33A C54G C87G | ≤ -4.2 |
| A20U C35G A49C G94A G100C A119U A120G U134C | ≤ -4.2 |
| A21G C75U A120G | 0.879 |
| A20C C57G C85A C118U G143C | -3.96 |
| A20C U53A U56G C85A A119C | -4 |
| A20U A47C U55A U56G C72U C87A G88C A115G | ≤ -4.2 |
| A20U U53G C72G C95G C108U C118A | ≤ -4.2 |
| A20U A47G A89U C105U | -2.65 |
| A21U G50C C57A A97G | -3.79 |
| A19U U53A G71C G84A C96U A97U C108G G140U | ≤ -4.2 |

| Variant | polymerase ribozyme fitness (log ratio) |
| --- | --- |
| A19U C95U C99A U145A | -2.13 |
| A19U G58A G62A G67A A89G C108A C116A G152U | ≤ -4.2 |
| A21C A30U U33G A60U C85A | ≤ -4.2 |
| A20U A23U G42A G67A C93U | ≤ -4.2 |
| A21G G46U U55A U151G | ≤ -4.2 |
| A21U C57G C93A | -2.34 |
| A20U G67A | -3.89 |
| A20U G84U A120U | -2.73 |
| A20U A52G | -2.02 |
| A21G U31G C38U A73C C87A C96U | ≤ -4.2 |
| A21U G84A | 0.266 |
| A21U C116U | 0.00754 |
| A20U A23U A37U C51U C69A C105U | ≤ -4.2 |
| A21C C54U | -0.0517 |
| A21C C54A | 0.0369 |
| A21G C54U C96G C129A | -3.17 |
| A20U G62C G71A G117U U135G | ≤ -4.2 |
| A20U G46U A98G C99U | -3.31 |
| A20U A52G U53A U55A C69A A110G U146G | ≤ -4.2 |
| A21U A29G C32A A64U G68U G84U A121U | ≤ -4.2 |
| A21U G50C U53A | -3.62 |
| A21U C27G C36A G117C | -4.02 |
| A20U G133C | -3.79 |
| A20C G92U C125A | -0.863 |

| Variant | polymerase ribozyme fitness (log ratio) |
| --- | --- |
| A21C A23C G80A U82G G86U A137G | ≤ -4.2 |
| A20U A37G A120C A142C | ≤ -4.2 |
| A21U A73G C79G G84U C149G | ≤ -4.2 |
| A21C C27G G83C A113U G140A | ≤ -4.2 |
| A20C G83C | -1.3 |
| A19U U56A | -0.835 |
| A21C A89U U104A | -0.361 |
| A21G C36U A52C A107U U127C | ≤ -4.2 |
| A19U G94A A121U C125G | -0.351 |
| A21C G94A U148A | -3.72 |
| A20C U44A A49C C96G C103A G141C | ≤ -4.2 |
| A19U G92U U102A U146C | -2.35 |
| A20G C54U A107U A120G | -3.56 |
| A20U A22C C87A G88C A98U A107G | ≤ -4.2 |
| A21U C57A | 0.469 |
| A20U G62C C63U C95U A122G G143A | -4.12 |
| A21U C38U U135C | -3.08 |
| A20G U144A | -0.576 |
| A21U A60G G65C | -3.98 |
| A20U A26C C32U A64C C75G U78G C123U U134C U145C | ≤ -4.2 |
| A19U U55G G88U U104G | ≤ -4.2 |
| A20U C54G G70C C79G G92U A107U | ≤ -4.2 |
| A21U A26U A29G C35A G86U | -4.04 |
| A20G G86U A91C U146G | ≤ -4.2 |

| Variant | polymerase ribozyme fitness (log ratio) |
| --- | --- |
| A20C A28U C35A G67U U102A | ≤ -4.2 |
| A19U C57U G81C C93G C125A | -3.42 |
| A20U G34C C96G | ≤ -4.2 |
| A21C G59C A98G C125G G136A U146G | -1.19 |
| A21C G83U C116G | -0.153 |
| A19U G58U C87U A119U | -2.02 |
| A21U A29C A30U C32A G86A C99U C118U U134A U145C C149G | ≤ -4.2 |
| A20U G84U A98G | -4.1 |
| A20C C96U A142C | -1.62 |
| A19U C93A | -2.7 |
| A19U C93U | -0.795 |
| A21C A47C G58C | 0.582 |
| A20C G68C G83C A89U U102A G140U | ≤ -4.2 |
| A20G G71A C96A | ≤ -4.2 |
| A20C A21U A30G A40G G94U A121G A137U | ≤ -4.2 |
| A20G C93U C99A G124U | -2.78 |
| A20G G81C C93U C103A G152A | -3.74 |
| A20U A22G A52U A73G C85U G124C | -3.91 |
| A21G A30G C125U G133C | ≤ -4.2 |
| A19U G83A U90A G94U | ≤ -4.2 |
| A21U A26U A40U | -3.62 |
| A21U C87A | -3.82 |
| A20G G83U | -0.993 |
